Drawing on article PMC3877065, “Ligand Recognition by the TPR Domain of the Import Factor Toc64 from Arabidopsis thaliana” (PLoS ONE, 2013), this text covers Kd for four variants.

To fix the notation:
B1: C-terminal octapeptide of Hsp70 (GPTIEEVD) [not stated] / TPR domain of AtToc64 with a C-terminal hexa-histidine tag (AtToc64_TPR-H6) [Arabidopsis thaliana] (parent complex)
chain 1: GPTIEEVD
chain 2: AEIAKEKGNQAFKEKLWQKAIGLYSEAIKLSDNNATYYSNRAAAYLELGGFLQAEEDCTKAITLDKKNVKAYLRRGTAREMLGDCKGAIEDFRYALVLEPNNKRASLSAERLRKFQ
B2: C-terminal octapeptide of Hsp90 (TSRMEEVD) [not stated] / TPR domain of AtToc64 with a C-terminal hexa-histidine tag (AtToc64_TPR-H6) [Arabidopsis thaliana] (parent complex)
chain 1: TSRMEEVD
chain 2: B1 chain 2

One may read the Kd as the constant that tells how readily two partners part at equilibrium.

In one assay the parent is B1. The assay is described as follows: ITC; parent: 2.3e+05 nM. For orientation: In ITC the heat of successive injections is recorded.
For the variant chain 1 GPTAEEVD, the Kd was 4600 µM.

In a further assay the parent is B2. The assay is described as follows: ITC; parent: 2.18e+05 nM.
As to chain 1 TSRAEEVD, the Kd came out at 1080 µM.

Turning to chain 1 TSRMEEVA, the Kd was found to be 1400 µM.

Take chain 1 TSRMEAVD: the Kd was determined as 1900 µM.
